Biological target: Apolipoprotein E receptor-2 (Apoer2) (human) (UniProt Q14114)
Assay: cell-based or functional assay

Chain of UniProt Q14114 (Q14114 33-963): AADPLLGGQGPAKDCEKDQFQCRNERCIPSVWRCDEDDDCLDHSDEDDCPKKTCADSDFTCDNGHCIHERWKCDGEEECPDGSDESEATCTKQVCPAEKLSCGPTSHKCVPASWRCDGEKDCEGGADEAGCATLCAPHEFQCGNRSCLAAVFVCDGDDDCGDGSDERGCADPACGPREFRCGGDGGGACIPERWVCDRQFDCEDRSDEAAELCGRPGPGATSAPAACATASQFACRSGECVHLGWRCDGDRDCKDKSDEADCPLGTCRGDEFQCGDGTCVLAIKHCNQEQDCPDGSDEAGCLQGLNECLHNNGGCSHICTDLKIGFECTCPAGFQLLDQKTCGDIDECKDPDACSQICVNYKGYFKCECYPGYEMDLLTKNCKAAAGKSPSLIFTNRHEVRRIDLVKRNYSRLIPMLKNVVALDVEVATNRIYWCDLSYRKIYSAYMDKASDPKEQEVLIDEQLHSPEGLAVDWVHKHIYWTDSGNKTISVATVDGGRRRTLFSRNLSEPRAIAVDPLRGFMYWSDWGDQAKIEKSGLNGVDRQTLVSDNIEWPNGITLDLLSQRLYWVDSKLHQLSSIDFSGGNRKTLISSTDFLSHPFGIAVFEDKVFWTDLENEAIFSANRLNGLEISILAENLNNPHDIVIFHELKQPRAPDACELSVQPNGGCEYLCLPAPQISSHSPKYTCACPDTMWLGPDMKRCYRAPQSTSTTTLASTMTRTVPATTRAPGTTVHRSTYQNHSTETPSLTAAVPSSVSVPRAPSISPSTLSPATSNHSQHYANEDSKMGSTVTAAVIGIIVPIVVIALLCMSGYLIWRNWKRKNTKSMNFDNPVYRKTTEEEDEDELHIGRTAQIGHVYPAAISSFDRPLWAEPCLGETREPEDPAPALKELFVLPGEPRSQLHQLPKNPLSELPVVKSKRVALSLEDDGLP

U937 monocyte adhesion to HAEC monolayers: > 2 fold
Substance: Recombinant Reelin (ligand)
